Data on 5 molecules can be found in patent US20250388669A1 (published 2025).

Test [1] has as its target T1, CD137 (human, UniProt Q07011 24-186).
T1 construct: Reporter assays used GS-H2-huCD137 cells expressing human CD137; also called 4-1BB/CD137; huCD137
The test can be described thus: CD137 binding by FCM or ELISA.

Test [2] has as its target T2, PD-1 (human, UniProt Q15116 25-167, limits assumed).
T2 construct: The reporter assay used Jurkat T cells expressing human PD-1
The test can be described thus: FCM or ELISA.

T2 sequence (Q15116 25-167 limits assumed): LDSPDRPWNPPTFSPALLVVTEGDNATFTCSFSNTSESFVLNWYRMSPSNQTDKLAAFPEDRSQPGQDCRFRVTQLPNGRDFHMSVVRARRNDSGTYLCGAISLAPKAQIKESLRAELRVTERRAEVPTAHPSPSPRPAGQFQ

B1: Ly2326 (bispecific antibody, human IgG1, kappa)
chain 1: QVQLQQSGAELVRPGSSVKISCKASGYAFSSYWMNWVKQRPGQGLEWIGQIWPGDGDTNYNGKFKGKATLTADESSSTAYMQLSSLASEDSAVYFCARRETTTVGRYYYAMDYWGQGTTVTVSSASTKGPSVFPLAPSSKSTSGGTAALGCLVKDYFPEPVTVSWNSGALTSGVHTFPAVLQSSGLYSLSSVVTVPSSSLGTQTYICNVNHKPSNTKVDKKVEPKSCDKTHTCPPCPAPEAAGPSVFLFPPKPKDTLMISRTPEVTCVVVDVSHEDPEVKFNWYVDGVEVHNAKTKPREEQYNSTYRVVSVLTVLHQDWLNGKEYKCKVSNKALPAPIEKTISKAKGQPREPQVYTLPPSREEMTKNQVSLWCLVKGFYPSDIAVEWESNGQPENNYKTTPPVLDSDGSFFLYSKLTVDKSRWQQGNVFSCSVMHEALHNHYTQKSLSLSPGGGGGSGGGGSGGGGSGGGGSQVQLVQSGAEVKKPGASVKVSCKASGYTFAGFEMHWVRQAPGQGLEWMGAIDPKTGGTDYNQKFKDRVTMTRDTSISTAYMELSRLRSDDTAVYYCARDLGYFDVWGQGTLVTVSS
chain 2: QVQLQQSGAELVRPGSSVKISCKASGYAFSSYWMNWVKQRPGQGLEWIGQIWPGDGDTNYNGKFKGKATLTADESSSTAYMQLSSLASEDSAVYFCARRETTTVGRYYYAMDYWGQGTTVTVSSASTKGPSVFPLAPSSKSTSGGTAALGCLVKDYFPEPVTVSWNSGALTSGVHTFPAVLQSSGLYSLSSVVTVPSSSLGTQTYICNVNHKPSNTKVDKKVEPKSCDKTHTCPPCPAPEAAGPSVFLFPPKPKDTLMISRTPEVTCVVVDVSHEDPEVKFNWYVDGVEVHNAKTKPREEQYNSTYRVVSVLTVLHQDWLNGKEYKCKVSNKALPAPIEKTISKAKGQPREPQVYTLPPSREEMTKNQVSLSCAVKGFYPSDIAVEWESNGQPENNYKTTPPVLDSDGSFFLVSKLTVDKSRWQQGNVFSCSVMHEALHNRFTQKSLSLSPGGGGGSGGGGSGGGGSGGGGSDIQMTQSPSSLSASVGDRVTITCRASQDIRSNLNWYQQKPGGAVKLLIYYTSRLHSGVPSRFSGSGSGTDYTLTISSLQPEDFATYFCQQSEKLPRTFGGGTKVEIR
light: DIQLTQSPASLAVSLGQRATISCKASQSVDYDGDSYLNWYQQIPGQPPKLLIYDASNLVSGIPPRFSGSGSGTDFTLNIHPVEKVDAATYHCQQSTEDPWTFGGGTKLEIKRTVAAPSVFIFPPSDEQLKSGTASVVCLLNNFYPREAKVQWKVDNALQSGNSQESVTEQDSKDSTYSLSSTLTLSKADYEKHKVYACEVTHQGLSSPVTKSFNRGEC
notes: CD19/CD137: two CD19 Fabs, terminal CD137 Fv
On to B1, for which, in test [1], the binding result is given as “binds”.

B2: Ly2280 (bispecific antibody)
chain 1: not shown
chain 2: QVTLKESGPALVKPTQTLTLTCTFSGFSLSTSGTCVSWIRQPPGKALEWLATICWEDSKGYNPSLKSRLTISKDTSKNQAVLTMTNMDPVDTATYYCARREDSGYFWFPYWGQGTLVTVSSASTKGPSVFPLAPSSKSTSGGTAALGCLVKDYFPEPVTVSWNSGALTSGVHTFPAVLQSSGLYSLSSVVTVPSSSLGTQTYICNVNHKPSNTKVDKKVEPKSCGGGGSGGGGSGGGGSGGGGSDIQMTQSPSSVSASVGDRVTITCRASQGIYSWLAWYQQKPGKAPNLLIYTASTLQSGVPSRFSGSGSGTDFTLTISSLQPEDFATYYCQQANIFPLTFGGGTKVEIKGGGGSDKTHTCPPCPAPEAAGPSVFLFPPKPKDTLMISRTPEVTCVVVDVSHEDPEVKFNWYVDGVEVHNAKTKPREEQYNSTYRVVSVLTVLHQDWLNGKEYKCKVSNKALPAPIEKTISKAKGQPREPQVYTLPPSREEMTKNQVSLSCAVKGFYPSDIAVEWESNGQPENNYKTTPPVLDSDGSFFLVSKLTVDKSRWQQGNVFSCSVMHEALHNRFTQKSLSLSPG
light: NIQMTQSPSSLSASVGDRVTITCKAGQNVNNYLAWYQQKPGKAPKVLIFNANSLQTGVPSRFSGSGSGTDFTLTISSLQPEDFATYYCQQYNSWPTFGGGTKVEIKRTVAAPSVFIFPPSDEQLKSGTASVVCLLNNFYPREAKVQWKVDNALQSGNSQESVTEQDSKDSTYSLSSTLTLSKADYEKHKVYACEVTHQGLSSPVTKSFNRGEC
notes: PD-1/CD40: two PD-1 Fabs, central CD40 Fv (TM383)
As to B2, in test [2], the binding result is “binds”.

B3: Ly2409 (bispecific antibody)
chain 1: QVTLKESGPALVKPTQTLTLTCTFSGFSLSTSGTCVSWIRQPPGKALEWLATICWEDSKGYNPSLKSRLTISKDTSKNQAVLTMTNMDPVDTATYYCARREDSGYFWFPYWGQGTLVTVSSASTKGPSVFPLAPSSKSTSGGTAALGCLVKDYFPEPVTVSWNSGALTSGVHTFPAVLQSSGLYSLSSVVTVPSSSLGTQTYICNVNHKPSNTKVDKKVEPKSCGGGGSGGGGSGGGGSGGGGSEVQLVESGGGLVQPGGSLRLSCAASGFTFTNYGLHWVRQAPGKGLEWVSSISPSGGVTYYRDSVKGRFTISRDNSKNTLYLQMNSLRAEDTAVYYCAKPFLGWGGANWIAHWGQGTLVTVSSGGGGSDKTHTCPPCPAPEAAGPSVFLFPPKPKDTLMISRTPEVTCVVVDVSHEDPEVKFNWYVDGVEVHNAKTKPREEQYNSTYRVVSVLTVLHQDWLNGKEYKCKVSNKALPAPIEKTISKAKGQPREPQVYTLPPSREEMTKNQVSLWCLVKGFYPSDIAVEWESNGQPENNYKTTPPVLDSDGSFFLYSKLTVDKSRWQQGNVFSCSVMHEALHNHYTQKSLSLSPG
chain 2: QVTLKESGPALVKPTQTLTLTCTFSGFSLSTSGTCVSWIRQPPGKALEWLATICWEDSKGYNPSLKSRLTISKDTSKNQAVLTMTNMDPVDTATYYCARREDSGYFWFPYWGQGTLVTVSSASTKGPSVFPLAPSSKSTSGGTAALGCLVKDYFPEPVTVSWNSGALTSGVHTFPAVLQSSGLYSLSSVVTVPSSSLGTQTYICNVNHKPSNTKVDKKVEPKSCGGGGSGGGGSGGGGSGGGGSDIQMTQSPSSLSASVGDRVTITCLASEDISNDLAWYQQKPGKAPKLLIYFVDRLLDGVPSRFSGSGSGTDFTLTISSLQPEDFATYYCQQSYKYPPTFGQGTKLEIKGGGGSDKTHTCPPCPAPEAAGPSVFLFPPKPKDTLMISRTPEVTCVVVDVSHEDPEVKFNWYVDGVEVHNAKTKPREEQYNSTYRVVSVLTVLHQDWLNGKEYKCKVSNKALPAPIEKTISKAKGQPREPQVYTLPPSREEMTKNQVSLSCAVKGFYPSDIAVEWESNGQPENNYKTTPPVLDSDGSFFLVSKLTVDKSRWQQGNVFSCSVMHEALHNRFTQKSLSLSPG
light: B2 light
notes: PD-1/CD40: two PD-1 Fabs, central CD40 Fv (TM559)
As to B3, the binding result in test [2] is given as “binds”.

B4: Ly2415 (bispecific antibody, human IgG1, kappa)
chain 1: QVTLKESGPALVKPTQTLTLTCTFSGFSLSTSGTCVSWIRQPPGKALEWLATICWEDSKGYNPSLKSRLTISKDTSKNQAVLTMTNMDPVDTATYYCARREDSGYFWFPYWGQGTLVTVSSASTKGPSVFPLAPSSKSTSGGTAALGCLVKDYFPEPVTVSWNSGALTSGVHTFPAVLQSSGLYSLSSVVTVPSSSLGTQTYICNVNHKPSNTKVDKKVEPKSCDKTHTCPPCPAPEAAGPSVFLFPPKPKDTLMISRTPEVTCVVVDVSHEDPEVKFNWYVDGVEVHNAKTKPREEQYNSTYRVVSVLTVLHQDWLNGKEYKCKVSNKALPAPIEKTISKAKGQPREPQVYTLPPSREEMTKNQVSLWCLVKGFYPSDIAVEWESNGQPENNYKTTPPVLDSDGSFFLYSKLTVDKSRWQQGNVFSCSVMHEALHNHYTQKSLSLSPGGGGGSGGGGSGGGGSGGGGSEVQLVESGGGLVQPGGSLRLSCAASGFTFTNYGLHWVRQAPGKGLEWVSSISPSGGVTYYRDSVKGRFTISRDNSKNTLYLQMNSLRAEDTAVYYCAKPFLGWGGANWIAHWGQGTLVTVSS
chain 2: QVTLKESGPALVKPTQTLTLTCTFSGFSLSTSGTCVSWIRQPPGKALEWLATICWEDSKGYNPSLKSRLTISKDTSKNQAVLTMTNMDPVDTATYYCARREDSGYFWFPYWGQGTLVTVSSASTKGPSVFPLAPSSKSTSGGTAALGCLVKDYFPEPVTVSWNSGALTSGVHTFPAVLQSSGLYSLSSVVTVPSSSLGTQTYICNVNHKPSNTKVDKKVEPKSCDKTHTCPPCPAPEAAGPSVFLFPPKPKDTLMISRTPEVTCVVVDVSHEDPEVKFNWYVDGVEVHNAKTKPREEQYNSTYRVVSVLTVLHQDWLNGKEYKCKVSNKALPAPIEKTISKAKGQPREPQVYTLPPSREEMTKNQVSLSCAVKGFYPSDIAVEWESNGQPENNYKTTPPVLDSDGSFFLVSKLTVDKSRWQQGNVFSCSVMHEALHNRFTQKSLSLSPGGGGGSGGGGSGGGGSGGGGSDIQMTQSPSSLSASVGDRVTITCLASEDISNDLAWYQQKPGKAPKLLIYFVDRLLDGVPSRFSGSGSGTDFTLTISSLQPEDFATYYCQQSYKYPPTFGQGTKLEIK
light: B2 light
notes: PD-1/CD40: two PD-1 Fabs, terminal CD40 Fv (TM559)
As for B4, the binding result in test [2] is on record as “binds”.

B5: Ly2405 (bispecific antibody, human IgG1, kappa)
chain 1: not shown
chain 2: QVTLKESGPALVKPTQTLTLTCTFSGFSLSTSGTCVSWIRQPPGKALEWLATICWEDSKGYNPSLKSRLTISKDTSKNQAVLTMTNMDPVDTATYYCARREDSGYFWFPYWGQGTLVTVSSASTKGPSVFPLAPSSKSTSGGTAALGCLVKDYFPEPVTVSWNSGALTSGVHTFPAVLQSSGLYSLSSVVTVPSSSLGTQTYICNVNHKPSNTKVDKKVEPKSCDKTHTCPPCPAPEAAGPSVFLFPPKPKDTLMISRTPEVTCVVVDVSHEDPEVKFNWYVDGVEVHNAKTKPREEQYNSTYRVVSVLTVLHQDWLNGKEYKCKVSNKALPAPIEKTISKAKGQPREPQVYTLPPSREEMTKNQVSLSCAVKGFYPSDIAVEWESNGQPENNYKTTPPVLDSDGSFFLVSKLTVDKSRWQQGNVFSCSVMHEALHNRFTQKSLSLSPGGGGGSGGGGSGGGGSGGGGSDIQMTQSPSSVSASVGDRVTITCRASQGIYSWLAWYQQKPGKAPNLLIYTASTLQSGVPSRFSGSGSGTDFTLTISSLQPEDFATYYCQQANIFPLTFGGGTKVEIK
light: B2 light
notes: PD-1/CD40: two PD-1 Fabs, terminal CD40 Fv (TM383)
Turning to B5, the binding result in test [2] was “binds”.
